PMC4255277
Where two headings read alike, the source gives them in different places.

Key:
[1] = molecular target: melanocortin-4 receptor (zebrafish) (zebrafish) (UniProt B0V1P1); assay: competition binding assay on cells
[2] = molecular target: melanocortin-4 receptor (zebrafish) (zebrafish) (UniProt B0V1P1); assay: competition binding assay on cells; remark: listed apart in the source

Chain of UniProt B0V1P1 (B0V1P1 whole entry): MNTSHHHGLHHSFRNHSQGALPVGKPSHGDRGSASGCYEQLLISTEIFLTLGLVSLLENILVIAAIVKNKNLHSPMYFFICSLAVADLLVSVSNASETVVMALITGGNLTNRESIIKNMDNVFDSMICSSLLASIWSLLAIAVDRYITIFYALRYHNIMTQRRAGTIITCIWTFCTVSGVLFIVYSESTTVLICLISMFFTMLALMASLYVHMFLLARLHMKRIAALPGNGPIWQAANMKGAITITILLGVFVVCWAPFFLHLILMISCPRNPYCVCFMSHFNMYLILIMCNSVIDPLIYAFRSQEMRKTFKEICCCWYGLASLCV

IC50 [1]: 50 nM
IC50 [2]: 45 nM
Substance: α–melanocyte-stimulating hormone (peptide)
